Measured values published in the Human Domainome abundance scans (Beltran et al. 2025).
± gives the uncertainty stated by the source.

Assay: abundance fitness (aPCA) (normalised: wild type 0, dead -1); higher = more abundant; growth selection in yeast, the domain comes from the species named
Conditions: Homo sapiens

“SAFB-like transcription modulator K53S, Q9NWH9” and “SAFB-like transcription modulator K53T, Q9NWH9” are within error of each other in abundance fitness: -0.141 ± 0.043 for the first, -0.03 ± 0.084 for the second.

First: SAFB-like transcription modulator K53V, Q9NWH9
Second: SAFB-like transcription modulator K53Y, Q9NWH9
The abundance fitness of the first is higher: -0.184 ± 0.051 for the first, -0.517 ± 0.18 for the second.

Compared with “SAFB-like transcription modulator L25A, Q9NWH9”, “SAFB-like transcription modulator L25D, Q9NWH9” is lower in abundance fitness: -0.385 ± 0.032 for the first, -0.665 ± 0.054 for the second.

“SAFB-like transcription modulator L25E, Q9NWH9” and “SAFB-like transcription modulator L25F, Q9NWH9” are within error of each other in abundance fitness: -0.308 ± 0.1 for the first, -0.312 ± 0.061 for the second.

“SAFB-like transcription modulator L25G, Q9NWH9” and “SAFB-like transcription modulator L25H, Q9NWH9” are within error of each other in abundance fitness: -0.715 ± 0.071 for the first, -0.732 ± 0.16 for the second.

“SAFB-like transcription modulator L25I, Q9NWH9” and “SAFB-like transcription modulator L25K, Q9NWH9” are within error of each other in abundance fitness: -0.467 ± 0.11 for the first, -0.407 ± 0.11 for the second.

First: SAFB-like transcription modulator L25M, Q9NWH9
Second: SAFB-like transcription modulator L25N, Q9NWH9
The abundance fitness of the first is lower: -0.768 ± 0.045 for the first, -0.172 ± 0.18 for the second.

Compared with “SAFB-like transcription modulator L25P, Q9NWH9”, “SAFB-like transcription modulator L25Q, Q9NWH9” is higher in abundance fitness: -0.718 ± 0.071 for the first, -0.181 ± 0.31 for the second.

“SAFB-like transcription modulator L25R, Q9NWH9” and “SAFB-like transcription modulator L25S, Q9NWH9” are within error of each other in abundance fitness: -0.663 ± 0.05 for the first, -0.745 ± 0.077 for the second.

First: SAFB-like transcription modulator L25T, Q9NWH9
Second: SAFB-like transcription modulator L25V, Q9NWH9
The abundance fitness of the first is higher: -0.536 ± 0.063 for the first, -0.748 ± 0.061 for the second.

Compared with “SAFB-like transcription modulator L25W, Q9NWH9”, “SAFB-like transcription modulator L30A, Q9NWH9” is lower in abundance fitness: -0.219 ± 0.055 for the first, -0.581 ± 0.035 for the second.

“SAFB-like transcription modulator L30C, Q9NWH9” and “SAFB-like transcription modulator L30D, Q9NWH9” are within error of each other in abundance fitness: -0.497 ± 0.083 for the first, -0.65 ± 0.083 for the second.

First: SAFB-like transcription modulator L30E, Q9NWH9
Second: SAFB-like transcription modulator L30F, Q9NWH9
The abundance fitness of the first is higher: -0.6 ± 0.05 for the first, -0.706 ± 0.055 for the second.

First: SAFB-like transcription modulator L30H, Q9NWH9
Second: SAFB-like transcription modulator L30I, Q9NWH9
The abundance fitness of the first is lower: -0.902 ± 0.17 for the first, -0.129 ± 0.067 for the second.

Compared with “SAFB-like transcription modulator L30K, Q9NWH9”, “SAFB-like transcription modulator L30N, Q9NWH9” is higher in abundance fitness: -1.33 ± 0.27 for the first, -0.267 ± 0.19 for the second.

First: SAFB-like transcription modulator L30P, Q9NWH9
Second: SAFB-like transcription modulator L30Q, Q9NWH9
The abundance fitness of the first is higher: -0.716 ± 0.067 for the first, -0.959 ± 0.17 for the second.

First: SAFB-like transcription modulator L30R, Q9NWH9
Second: SAFB-like transcription modulator L30S, Q9NWH9
The abundance fitness of the first is lower: -0.949 ± 0.056 for the first, -0.776 ± 0.058 for the second.

Going from “SAFB-like transcription modulator L30T, Q9NWH9” to “SAFB-like transcription modulator L30V, Q9NWH9”, the abundance fitness rises from -0.936 ± 0.11 to -0.295 ± 0.05.

First: SAFB-like transcription modulator L30W, Q9NWH9
Second: SAFB-like transcription modulator L30Y, Q9NWH9
The abundance fitness of the first is higher: -0.748 ± 0.098 for the first, -1 ± 0.13 for the second.

Going from “SAFB-like transcription modulator L34A, Q9NWH9” to “SAFB-like transcription modulator L34C, Q9NWH9”, the abundance fitness rises from -0.767 ± 0.092 to -0.496 ± 0.1.

“SAFB-like transcription modulator L34D, Q9NWH9” and “SAFB-like transcription modulator L34E, Q9NWH9” are within error of each other in abundance fitness: -0.414 ± 0.12 for the first, -0.594 ± 0.087 for the second.

“SAFB-like transcription modulator L34F, Q9NWH9” and “SAFB-like transcription modulator L34G, Q9NWH9” are within error of each other in abundance fitness: -0.945 ± 0.2 for the first, -0.829 ± 0.043 for the second.

“SAFB-like transcription modulator L34H, Q9NWH9” and “SAFB-like transcription modulator L34I, Q9NWH9” are within error of each other in abundance fitness: -0.465 ± 0.38 for the first, -1 ± 0.31 for the second.

Compared with “SAFB-like transcription modulator L34K, Q9NWH9”, “SAFB-like transcription modulator L34M, Q9NWH9” is higher in abundance fitness: -0.864 ± 0.078 for the first, -0.678 ± 0.1 for the second.

“SAFB-like transcription modulator L34N, Q9NWH9” and “SAFB-like transcription modulator L34P, Q9NWH9” are within error of each other in abundance fitness: -0.964 ± 0.45 for the first, -0.8 ± 0.084 for the second.

Compared with “SAFB-like transcription modulator L34Q, Q9NWH9”, “SAFB-like transcription modulator L34R, Q9NWH9” is lower in abundance fitness: -0.673 ± 0.057 for the first, -0.969 ± 0.069 for the second.
